We go through 3 molecules from US8501181B2, “Compositions and methods for treating osteolytic disorders comprising MMP-14 binding proteins” (Dyax Corp., priority 2007, dated 2013).

For one assay, the system named is Raw 264.7 cells. As to the kind of experiment: Osteoclastogenesis (TRAP staining) and bone resorption (pits) on osteologic slides, RANK ligand-stimulated. The format is cell-based, Mouse. To be noted: Raw 264.7 cells + 100 ng/ml murine soluble RANK ligand, 6 days; GM6001 5, 10, 25 μM; 539A-M0240-B03 10, 50 μg/ml; 539A-M0237-D02 10, 100 μg/ml; dose-dependent; data not shown. On the procedure:
Cells. […] Cells between passage 3-7 were used in this study.
Materials. […] Tartrate-resistant acid phosphatase (TRAP) staining kit was obtained from KAMIYA BIOMEDICA COMPANY™, Seattle Wash. (Catalog #KT-008). GM6001 was obtained from MILLIPORE™.
Methods. Approximately 2000 Raw 264.7 cells per slide were seeded onto osteologic multitest slides with complete growth medium. […] The slides were then incubated at 37° C. for 6 days, replacing fresh media on day 3 as described above. At the end of incubation time, one side of the slide was stained for TRAP and the other side of the slide was bleached (10% bleach), washed several times with water, and air dried. The slides were then viewed under the microscope for either multinucleated TRAP positive cells or resorbed areas (pits). Cells incubated with media only and recombinant osteoprotegerin (rH OPG) (100 ng/ml) served as negative and positive controls, respectively.

Assay [1] has as its target T1, MMP-9 (Homo sapiens, UniProt P14780). The assay is described as follows: Inhibition of human MMP-9 activity (statement, no method given). The format is biochemical.
Target sequence in this assay (P14780 94-707): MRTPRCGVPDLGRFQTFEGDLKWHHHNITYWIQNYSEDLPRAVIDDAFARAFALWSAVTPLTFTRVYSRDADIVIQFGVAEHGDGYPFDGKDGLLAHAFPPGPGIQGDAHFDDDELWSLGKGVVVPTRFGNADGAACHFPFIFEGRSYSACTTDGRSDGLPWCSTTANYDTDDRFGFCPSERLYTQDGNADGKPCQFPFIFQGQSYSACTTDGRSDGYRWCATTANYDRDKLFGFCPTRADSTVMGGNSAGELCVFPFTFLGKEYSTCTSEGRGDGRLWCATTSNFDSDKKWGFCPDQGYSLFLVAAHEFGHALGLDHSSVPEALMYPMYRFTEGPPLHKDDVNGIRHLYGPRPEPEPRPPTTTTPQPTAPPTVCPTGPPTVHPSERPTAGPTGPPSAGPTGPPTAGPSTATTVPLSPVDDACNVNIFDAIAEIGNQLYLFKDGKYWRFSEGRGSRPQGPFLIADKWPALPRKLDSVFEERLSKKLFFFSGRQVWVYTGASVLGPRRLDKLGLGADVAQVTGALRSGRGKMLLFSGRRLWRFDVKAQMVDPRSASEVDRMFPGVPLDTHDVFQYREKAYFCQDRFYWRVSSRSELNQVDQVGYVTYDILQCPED
The target of a further assay is mouse MMP-9 (Mus musculus, UniProt P41245). The assay is described as follows: Inhibition of mouse MMP-9 activity (statement, no method given). Type of assay: biochemical.
Sequence of mouse MMP-9 (P41245 108-730): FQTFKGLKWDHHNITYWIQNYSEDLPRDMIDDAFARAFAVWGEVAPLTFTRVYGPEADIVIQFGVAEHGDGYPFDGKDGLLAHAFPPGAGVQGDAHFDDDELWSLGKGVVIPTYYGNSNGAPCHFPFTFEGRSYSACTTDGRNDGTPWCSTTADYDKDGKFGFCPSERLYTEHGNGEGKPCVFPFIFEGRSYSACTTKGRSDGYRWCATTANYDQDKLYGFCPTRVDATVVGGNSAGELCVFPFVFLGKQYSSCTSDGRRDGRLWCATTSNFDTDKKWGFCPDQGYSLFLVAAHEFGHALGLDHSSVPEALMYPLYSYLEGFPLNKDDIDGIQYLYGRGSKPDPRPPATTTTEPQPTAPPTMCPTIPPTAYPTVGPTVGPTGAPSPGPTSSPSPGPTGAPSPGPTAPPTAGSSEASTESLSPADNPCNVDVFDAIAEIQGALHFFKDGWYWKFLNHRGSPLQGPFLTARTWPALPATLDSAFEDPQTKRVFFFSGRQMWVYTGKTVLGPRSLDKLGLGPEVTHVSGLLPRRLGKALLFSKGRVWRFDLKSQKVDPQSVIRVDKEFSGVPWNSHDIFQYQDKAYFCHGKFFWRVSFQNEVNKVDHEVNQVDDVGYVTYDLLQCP
The target of assay [2] is T1, MMP-9. The assay is described as follows: MMP-9 inhibition, selectivity (statement, no method given). Type of assay: biochemical.
Target sequence in this assay (P14780 94-707, species assumed): as the sequence (P14780 94-707) above
The target of a further assay is MMP-14 (Homo sapiens, UniProt P50281). As to the kind of experiment: MMP-14 inhibition (statement, no method given). The format is biochemical.
For assay [3], the system named is PC-3 prostate cancer cells. The assay is described as follows: PC-3 prostate cancer model, intra-tibial inoculation, osteolytic lesions. Type of assay: in vivo. The conditions noted are these: mice, intra-tibial PC-3 cells; 10 mg/kg Q2D for 14 days, started 3 days after inoculation; vs PBS control; X-ray and bone histomorphometric analysis. On the procedure:
PC-3 prostate cancer cells were inoculated intra-tibially into mice. Treatment was initiated 3 days after intra-tibial inoculation of the cells. DX-2400 (10 mg/kg) and a PBS control were administered Q2D for 14 days.

On to `CNC(=O)[C@H](Cc1c[nH]c2ccccc12)NC(=O)[C@@H](CC(=O)NO)CC(C)C` [GM6001, reference compound], for which, in the assay on Raw 264.7 cells, the “effect on bone resorption (number of resorbed areas, pits)” value is on record as “inhibitory effects” and the “effect on osteoclastogenesis (TRAP-positive staining)” value is reported as “inhibitory effects”.

B1: 539A-M0240-B03: exemplary MMP-9 antibody; LC CDRs SEQ ID NO: 14-16, HC CDRs SEQ ID NO: 17-19 (antibody, V domains shown)
VL: QYELTQPRSVSGSPGQSVTISCTGTSSDVGGYNYVSWYQQHPGKAPKLMIYDVSKRPSGVPDRFSGSKSGNTASLTISGLQAEDEADYYCCSYAGSYTLVFGGGTKLTVL
VH: EVQLLESGGGLVQPGGSLRLSCAASGFTFSTYQMVWVRQAPGKGLEWVSVIYPSGGPTVYADSVKGRFTISRDNSKNTLYLQMNSLRAEDTAVYYCARGEDYYDSSGPGAFDIWGQGTMVTVSS
For the molecule B1, in the assay with Raw 264.7 cells, the “effect on bone resorption (number of resorbed areas, pits)” value is “inhibitory effects” and the “effect on osteoclastogenesis (TRAP-positive staining)” value was “inhibitory effects”. For the same molecule, the “effect on activity of human MMP-9” value with MMP-9 [1] is “can decrease or inhibit the activity”. Also, the “effect on activity of mouse MMP-9” value with mouse MMP-9 is listed as “can decrease or inhibit the activity”. Also, in the assay with MMP-9 [2], the “selectivity of MMP-9 inhibition” value was “selective inhibitor of MMP-9”.

B2: DX-2400: exemplary MMP-14 antibody; VH SEQ ID NO: 22, VL SEQ ID NO: 23; shares HC and LC CDRs with M0038-F01 (antibody, V domains shown)
VH: EVQLLESGGGLVQPGGSLRLSCAASGFTFSLYSMNWVRQAPGKGLEWVSSIYSSGGSTLYADSVKGRFTISRDNSKNTLYLQMNSLRAEDTAVYYCARGRAFDIWGQGTMVTVSS
VL: DIQMTQSPSSLSASVGDRVTITCRASQSVGTYLNWYQQKPGKAPKLLIYATSNLRSGVPSRFSGSGSGTDFTLTISSLQPEDFATYYCQQSYSIPRFTFGPGTKVDIK
notes: exemplary MMP-14 antibody; shares HC and LC CDRs with M0038-F01
As to B2, the “selectivity of MMP-14 inhibition” value with MMP-14 is “selective inhibitor of MMP-14”. In assay [3], the “reduction of the area of the osteolytic lesions” value was “about 3 fold”.
